The source of these data is the DeepSol protein solubility set.

This data set can be described thus: soluble on expression in E. coli; label from the status in PepcDB or PDB records.
Regarding “MPKSAKRRASQPTGAETLVVVESPAKARSIQKMLGPGYEVRASLGHVVDLPERSLGVDVERDFAPTYEVKKDKKPVVEELKRAAEGKRLLIATDPDREGEAIGWHVARLLGRDPKEPLRVEFHEITPRVVRQAVEAPRPIDQNLVDAQQARRVLDRLLGYNLSPLLSLEFRKRALSAGRVQSVALRLVVEREEAIEAFRPEEYWVLRGVFAVEGGEAPLVATLHEVEGKRLWTGQGEKEGRLHLASEAEAHALAEALRKGSYRVAQVEVRERRKAPPPPFTTSTLQQAASSRLGYTAARTMRIAQRLYEGVDLPEGTVGLITYMRTDSVRVAPEAVAAAREVIGKAFGPEYLPEAPRAYKNRREGVQDAHEAIRPTDPKRTPESVRPYLSEEEYRLYELIWRRFLASQMRDALYEQTAVTLADLEGRYAFRASGSVLRFEGYLRAWGRDAEEEEEPPVPAVPEGVPARLEEVLEERRFTEPPPRYTDASLVKTMEELGIGRPSTYAPTLETLEKRGYVARKGRTLFPTPLGRQVTAYLRERFPQVVAYEFTARMEERLDEVEEGRVPWPKVVWEFYEPFLGELAQVPKKTCPRCGRPLELKVSRYGQFLGCTGYPECTYTEPLERREAEPIGEACPKCGRPLLRKEGRYGTFIACSGYPECDYTRDDGTPTGHTCPKCGGRVLEKRSRKGRPYYKCENNACDFLSFYPLLEEACPACGWPLVKKGEKALCLNPACPEHEPSLLPAPKEAKKGRSRGKGKPPLAPPKDWEELVPFLPGLSPEERRAVEALARGEALARGEALAEEEARLARRALFKLRMRKGKARKEPVRA”, the “soluble on expression in E. coli” value is given as “soluble”.

In the case of “MPKTEDKYLPLMSKEKIEKALAFHKSFPQYSETPLAELNHMAAYLGLNDFFVKDESYRFGLNAFKVLGGSFAMANYIAEKLKKDVSELTYDELTSDQLRSAFGQATFFTATDGNHGRGVAWAANKLGQKSVVLMPKGSTQTRKENIEKEGATVTIEEVNYDECVRMANKMAEETENGVMVQDTAWDGYEKIPTWIMQGYGTMALEASQQLRKFGSERPSHVFVQAGVGSLAGAVIGYFANAFPENPPIMVVVEAQAADCLYQSAIKKDGEIRFVDGDLQTIMAGLACGEPNTISFDILKNHTSFFVSAPDWVSEKGMRMLGAPLKGDPQVVSGESGAVAMGLVATVMQDPDYQELHEALQLDETSNVLMFSTEGDTDPDNYKKILWR”, the “soluble on expression in E. coli” value is on record as “not soluble”.

“MPLLGLLPRRAWASLLSQLLRPPCASCTGAVRCQSQVAEAVLTSQLKAHQEKPNFIIKTPKGTRDLSPQHMVVREKILDLVISCFKRHGAKGMDTPAFELKETLTEKYGEDSGLMYDLKDQGGELLSLRYDLTVPFARYLAMNKVKKMKRYHVGKVWRRESPTIVQGRYREFCQCDFDIAGQFDPMIPDAECLKIMCEILSGLQLGDFLIKVNDRRIVDGMFAVCGVPESKFRAICSSIDKLDKMAWKDVRHEMVVKKGLAPEVADRIGDYVQCHGGVSLVEQMFQDPRLSQNKQALEGLGDLKLLFEYLTLFGIADKISFDLSLARGLDYYTGVIYEAVLLQTPTQAGEEPLNVGSVAAGGRYDGLVGMFDPKGHKVPCVGLSIGVERIFYIVEQRMKTKGEKVRTTETQVFVATPQKNFLQERLKLIAELWDSGIKAEMLYKNNPKLLTQLHYCESTGIPLVVIIGEQELKEGVIKIRSVASREEVAIKRENFVAEIQKRLSES”: the “soluble on expression in E. coli” value was “soluble”.

On to “MPLPPDITFDSLALIKMHSQNMKRILEVTLAKFTVNLSIVTVYRYLTARAYLKKNIEAEFEILKDIYNIVPLLDDIAIKAAQIEANLIKKEITLDMEDIITATTAIYTNSLLVTDDPKRYEPIRRFGLDTMPLDKFIKEVELMVEKELI”, for which the “soluble on expression in E. coli” value is on record as “soluble”.

For the sequence “MPLPSFLEVYEGLISTSSISSTDARWDEGNEQVIAKLADWLSALGFSIQIEQVAPNKQNLIAKLGSGEGGLLLAGHSDTVPFDEGRWNYNPHALTQVNNRFYGLGTADMKGFFAFIYEAVKNVDWSKQTKPLYVLATCDEETTMLGARHFTENAPFKPDYCIIGEPTSLVPIRAHKGHVANAIRVTGKSGHSSNPALGVNAIEIMHEVLFALMQLRDRLIKEYHHPGFEIPTPTLNLGHIHGGDSPNRICGCCELHYDVRPLPGISLDGLDNLMHDALREVQQKWPGRIELVPLHDPIPGYECAHDHPFIHGISEICEQEAQTVNYCTEAPFLQQVCPTLVLGPGSIDQAHQPDEFLAFEFIDPTVRVLSRAMQKYCF”, the “soluble on expression in E. coli” value was “soluble”.

For “MPLQQTLGVDCQTAADAGGEPHCFAGPVRERRMDSVLVIGGGRFIGRHTVTEFRDAGYDVTMLTRGRRQNPFTNAEVAHIEGDRRERDTLETARERVNPDVVVDCVAYFPEDVRVATDVFADVGAYVYISSGAAYGAERTPKREGETPLAGCTAEQATTDSAETYGPRKAEGDREVFAAAEDGVQAMSVRPTVVYGPYDYTERFAYWVDRVAEYDRVVVPSDGLSLWQMAYVEDVASALRLVAERGTAGEAYNVGDEHAPTLREWVDLLARVHETDVETIGVGERELRAAGLAPDDFPIYRDSPHLLSTAKLRGLGWSSTPHETALAVTVAEHLENDRTGREFGPDRDTEAALIDRLTE”, the “soluble on expression in E. coli” value was “not soluble”.

As to “MPLRILHTSDWHLGRSLFGRSRLHEFEAFLDWLAGTVESRGIELLVVAGDIFDTTTPGNATQKLYYQFLNRIALTPGSPCRHVVITSGNHDSPTFLDAPKELLRAFDVHVLGATTGDPADEVRLLRDRQGSPEAIVCAVPFLRDRDIRTVEPGESLEDKIRKLSDGVSLHYAEVARIAAERRRSLGADIPVIAMGHLFTAGCVTVEEDGVREIYAGALSIVCSTAFPPVFDYVALGHMHVPQRVDKTEHMRYCGSPIPMGFGEAKQQKLVLQVDFEGREPTVTEIEVPCFQPLERLAGSLDELSAAIAALRSAGSNAWLEIDYRGDEAPATVQEAMEQAVAGSLLEIRRIRNNRPLQQALRHSAANETLQQLDPEAVFNRCLEAYGTDESLRPALVESYREVLRSIREEDVMAEKEGKS”, the “soluble on expression in E. coli” value is reported as “not soluble”.

In the case of “MPLRQDLTPVVITVTGADRHGVTAATFRVLSANNVQILDVEQSKFRGFLSIAVYAGIKASMIDSVEQGLRDTLSVHGQSVSLSVESRTEVSRPRSTHVVVILGNPVGAEDIWKIGQTMADFGANIDGIRGISDYPVTGLELRVTVADPAPGAAEPLRKALAALTTELGVDIVIERAGLQR”, the “soluble on expression in E. coli” value was “not soluble”.

As to “MPMFAWKGKRDKSMKVSVVIPVHNEASTLSKVLAEVKKLEPYEIIIVDNGSTDGTKEIALQHHCRVIYYNHSLGNDVGRAIGAREAKGEIVLFLDGDIVMKSEELYPFIKGIQQGHQIVLNNLTWSVYLKVRPHYTTVGKYMLNRYLNKKEFVVGSLIAIPHAISREVIEKLGWWNLADPALFQAMAMSRGVDISDMASVDVIYTNKVRPVHTGTSPDSPYPKATSRIMGDHLRALQYITETYGKRGGFSEGNRDREFIGKYKPVVLKKEKAKYSAIIPVSEEKTTIRSVIQEVKKAGVDEIIIVANGADIETIKQVNLENVIVVEVTKTLGNNVARAIGAMHATAEICLFVDGDYAIPAKKLVPFLRAIEDGSDMALNDLQCLLDIFHPADPISMGKYFVNLVAKRPDLWNNSLTAVPHAIRKKVIEKIGYDSLIIPPLAQMKAILEGFSITTVEFVDVIKTNRVRPEQHEFVNGRISAFDRIFGDQLEAIAYLLQHTDERGGFTDGDRDREIIQQLRREEENTNEY”, the “soluble on expression in E. coli” value was “not soluble”.

For the sequence “MPMSSLPAAILSHMTAINNVPPPPLHSIPNLKKSKHINYGQLNALCHIRGQHSRSMSNILSAHDTFMKQYPKVFLHQKPRLPKLFKQEEQRELNEGKEESQHQQPDDSNNIAVHVQRAHGGHILYRPKRATEKFEEFLAILKKLPIHRTPYEHKTVWKFLKTIPDLTFQLNDKHLKTLSKTVFSETWLKGSTVVANDGFYVILKGLARPQTNVYKNLIEGSDSPDSFISQSFHSFIWSEEFKNSTLAEMYLPSYDSMLSKWSTFGTLEVMPQNESETQMFSVVTEDDCEILKIPAKGYAKIKEEKIKLENMQKLKLIRMCPYYEEWPTLSIYELIALLKWKKFPPGHVIVESGNIISFVGYINSGCCNIYRSIIGFVKLRSNKVKRSQKLVYMGKLKEKESFGEISVLLQVPFTCTIITKKEVEMAIIEDKDLFVA”, the “soluble on expression in E. coli” value is “soluble”.

In the case of “MPMVRNPMFLRMLGGLALALMLSAGRVATADTGTEAARAVVDKLNGALIDVMRNAKQLGYQGRYKKLDPIVREVFQFEAVAQIALGAHWKTLNDDQKREFVKKLTELSIATYAAQFNSYAGEQFQYDSDQAVKPDRVVVRYKMVAPKETPVKFDYMVNQFDGKWEIINIVVDGISDLALKKAQYTSVIDREGFDVLMSKLTQKITDYANNENNSKSLEHHHHHH”, the “soluble on expression in E. coli” value is on record as “soluble”.
